In article PMC11886824 (Nucleic Acids Research, 2025):
Like-named read-outs stand apart in the source and are kept apart here.

What was measured:
cryo-EM structure = target: the molecule itself; experiment: cryo-EM structure
P12(1-122) (T3) = target: T1, P12(1-122) (T3) (Enterobacteria phage PRD1, UniProt P17637 1-122, del123-160); experiment: EMSA
T1 sequence: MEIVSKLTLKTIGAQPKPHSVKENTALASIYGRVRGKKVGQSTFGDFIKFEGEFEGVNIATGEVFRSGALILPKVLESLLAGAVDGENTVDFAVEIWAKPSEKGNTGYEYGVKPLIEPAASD

P12 F44A+K10A (M2) = target: T2, P12 F44A+K10A (M2) (Enterobacteria phage PRD1, UniProt P17637 1-160, K10A;F44A); experiment: EMSA
T2 sequence: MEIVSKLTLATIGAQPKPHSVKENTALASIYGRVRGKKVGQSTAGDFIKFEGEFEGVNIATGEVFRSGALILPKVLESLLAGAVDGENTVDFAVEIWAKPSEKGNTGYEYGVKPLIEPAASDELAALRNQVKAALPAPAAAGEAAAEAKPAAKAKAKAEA

P12 WT [1] = target: T3, P12 WT (Enterobacteria phage PRD1, UniProt P17637 1-160); experiment: EMSA
T3 sequence: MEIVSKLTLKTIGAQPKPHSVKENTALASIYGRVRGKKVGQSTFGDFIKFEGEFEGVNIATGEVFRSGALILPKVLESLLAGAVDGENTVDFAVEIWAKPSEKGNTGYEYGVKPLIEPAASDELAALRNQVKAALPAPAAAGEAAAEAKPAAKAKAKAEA

P12 WT [2] = target: T3, P12 WT; experiment: EMSA; remark: listed apart in the source
P12 WT [3] = target: T3, P12 WT; experiment: EMSA; remark: listed apart in the source

B1: P12, single-stranded DNA-binding protein from bacteriophage PRD1 (natural protein, UniProt P17637 1-160, looked up)
chain: MEIVSKLTLKTIGAQPKPHSVKENTALASIYGRVRGKKVGQSTFGDFIKFEGEFEGVNIATGEVFRSGALILPKVLESLLAGAVDGENTVDFAVEIWAKPSEKGNTGYEYGVKPLIEPAASDELAALRNQVKAALPAPAAAGEAAAEAKPAAKAKAKAEA
binding result (cryo-EM structure): binds

B2: ssDNA (non-repetitive)80 (ssDNA)
DNA: AGAGACAACTGGCCGTCGTTCTATTGTACTCACTGTGATCAGAGACAACTGGCCGTCGTTCTATTGTACTCACTGTGATC
binding result (P12(1-122) (T3)): no binding | binding result (P12 F44A+K10A (M2)): no binding | Kd (P12 WT [1]): 350 nM

B3: ssDNA (non-repetitive)50 (ssDNA)
DNA: GATCACAGTGAGTACAATAGAACGACGGCCAGTTGTCTCAATCTAACGGC
binding result (P12 WT [2]): binds

B4: ssRNA (non-repetitive)50 (ssRNA)
RNA: GAAAAUAAAAAUAAACUGGACAAUUAAGGAUCCUGUACAAGUCGACGCGG
binding result (P12 WT [2]): no binding

B5: ssDNA (non-repetitive)40 (ssDNA)
DNA: AGAGACAACTGGCCGTCGTTCTATTGTACTCACTGTGATC
binding result (P12 WT [3]): binds
